This data set concerns the target purified histone H4 (New England Biolabs), P62805.

B1: purified ACK1 (protein)
chain: GEGPLQSLTCLIGEKDLRLLEKLGDGSFGVVRRGEWDAPSGKTVSVAVKCLKPDVLSQPEAMDDFIREVNAMHSLDHRNLIRLYGVVLTPPMKMVTELAPLGSLLDRLRKHQGHFLLGTLSRYAVQVAEGMGYLESKRFIHRDLAARNLLLATRDLVKIGDFGLMRALPQNDDHYVMQEHRKVPFAWCAPESLKTRTFSHASDTWMFGVTLWEMFTYGQEPWIGLNGSQILHKIDKEGERLPRPEDCPQDIYNVMVQCWAHKPEDRPTFVALRDFLLEAQPTDMRALQDFEEPDKLHIQMNDVITVIEGRAENYWWRGQNTRTLCVGPFPRNVVTSVAGLSAQDISQPLQNSFIHTGHGDSDPRHCW
In the case of B1, the “in vitro kinase assay with all the four core histones, immunoblotting with pY88-H4 antibodies” value was “Presence of band exclusively when ACK1 was incubated with H4”; the “in vitro kinase assay, immunoblotting with pY88-H4 and pTyr antibodies” value was “indeed H4 is directly Tyr-phosphorylated by ACK1”.
